Measured values: patent publication US20150017095A1 (AbbVie / Abbott, published 2015)

Legend:
Recombinant Human VEGF [1] = target: T1, Recombinant Human VEGF (human, UniProt P15692-4 27-191); assay: direct bind ELISA, antigen coated on plate (N-terminal VD)
T1 construct: also called VEGF165
Method: (§1) Enzyme Linked Immunosorbent Assays to screen for antibodies that bind a desired target antigen were performed as follows. High bind ELISA plates (Corning Costar #3369, Acton, Mass.) were coated with 100 μL/well of 10 μg/ml of desired target antigen (R&D Systems, Minneapolis, Minn.) or desired target antigen extra-cellular domain/FC fusion protein (R&D Systems, Minneapolis, Minn.) or monoclonal mouse anti-polyHistidine antibody (R&D Systems # MAB050, Minneapolis, Minn.) in phosphate buffered saline (10×PBS, Abbott Bioresearch Center, Media Prep# MPS-073, Worcester, Mass.) overnight at 4° C. Plates were washed four times with PBS containing 0.02% Tween 20. Plates were blocked by the addition of 300 μL/well blocking solution (non-fat dry milk powder, various retail suppliers, diluted to 2% in PBS) for ½ hour at room temperature. Plates were washed four times after blocking with PBS containing 0.02% Tween 20.
(§2) Plates were washed 4 times with PBS containing 0.02% Tween 20.
(§3) One hundred microliters of enhanced TMB solution (Neogen Corp. #308177, K Blue, Lexington, Ky.) was added to each well and incubated for 10 minutes at room temperature. The reaction was stopped by the addition of 50 μL 1N sulphuric acid.

Recombinant Human VEGF [2] = target: T1, Recombinant Human VEGF; assay: BIACORE SPR, DVD-Ig captured, antigen in flow (N-terminal VD)
Method: (§4) The BIACORE assay (Biacore, Inc, Piscataway, N.J.) determines the affinity of antibodies or DVD-Ig with kinetic measurements of on-rate and off-rate constants. […] All chemicals are obtained from Biacore® AB (Uppsala, Sweden) or otherwise from a different source as described in the text. For example, approximately 5000 RU of goat anti-mouse IgG, (Fcγ), fragment specific polyclonal antibody (Pierce Biotechnology Inc, Rockford, Ill.) diluted in 10 mM sodium acetate (pH 4.5) is directly immobilized across a CM5 research grade biosensor chip using a standard amine coupling kit according to manufacturer's instructions and procedures at 25 μg/ml. Unreacted moieties on the biosensor surface are blocked with ethanolamine. Modified carboxymethyl dextran surface in flowcell 2 and 4 is used as a reaction surface. Unmodified carboxymethyl dextran without goat anti-mouse IgG in flow cell 1 and 3 is used as the reference surface. For kinetic analysis, rate equations derived from the 1:1 Langmuir binding model are fitted simultaneously to association and dissociation phases of all eight injections (using global fit analysis) with the use of Biaevaluation 4.0.1 software. Purified antibodies or DVD-Ig are diluted in HEPES-buffered saline for capture across goat anti-mouse IgG specific reaction surfaces. Antibodies or DVD-Ig to be captured as a ligand (25 μg/m) are injected over reaction matrices at a flow rate of 5 μl/min. The association and dissociation rate constants, kₒₙ (M⁻¹s⁻¹) and koff (s⁻¹) are determined under a continuous flow rate of 25 μl/min. Rate constants are derived by making kinetic binding measurements at different antigen concentrations ranging from 10-200 nM. The equilibrium dissociation constant (M) of the reaction between antibodies or DVD-Igs and the target antigen is then calculated from the kinetic rate constants by the following formula: KD=koff/kₒₙ. Binding is recorded as a function of time and kinetic rate constants are calculated.

Recombinant Human IL-1β [3] = target: T2, Recombinant Human IL-1β (human, UniProt P01584 117-269); assay: direct bind ELISA, antigen coated on plate
T2 construct: also called IL-1b; IL-1B
Method: as §1, §2, §3

Recombinant Human IL-1β [4] = target: T2, Recombinant Human IL-1β; assay: BIACORE SPR, antibody captured, antigen in flow
Method: as §4

Recombinant Human VEGF [5] = target: T1, Recombinant Human VEGF; assay: direct bind ELISA, antigen coated on plate (C-terminal VD)
Method: as §1, §2, §3

Recombinant Human VEGF [6] = target: T1, Recombinant Human VEGF; assay: BIACORE SPR, DVD-Ig captured, antigen in flow (C-terminal VD)
Method: as §4

Recombinant Human β-NGF [7] = target: T3, Recombinant Human β-NGF (human, UniProt P01138 122-239, limits assumed); assay: direct bind ELISA, antigen coated on plate
T3 sequence (P01138 122-239 limits assumed): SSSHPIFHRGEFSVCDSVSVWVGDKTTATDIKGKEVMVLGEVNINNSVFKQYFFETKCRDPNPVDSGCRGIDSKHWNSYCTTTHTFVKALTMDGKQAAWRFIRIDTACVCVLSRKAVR
Method: as §1, §2, §3

Recombinant Human β-NGF [8] = target: T3, Recombinant Human β-NGF; assay: BIACORE SPR, antibody captured, antigen in flow
Method: as §4

Recombinant Human β-NGF [9] = target: T3, Recombinant Human β-NGF; assay: BIACORE SPR, antibody captured, antigen in flow; Biacore, antibody captured, 25 C, HBS-EP
Method: as §4, with “For kinetic analysis, rate equations derived from the 1:1 Langmuir binding model are fitted simultaneously to association and dissociation phases of all eight injections (using global fit analysis) with the use of Biaevaluation 4.0.1 software. Purified antibodies or DVD-Ig are diluted in HEPES-buffered saline for capture across goat anti-mouse IgG specific reaction surfaces. Antibodies or DVD-Ig to be captured as a ligand (25 μg/m) are injected over reaction matrices at a flow rate of 5 μl/min.” left out, “Rate constants are derived by making kinetic binding measurements at different antigen concentrations ranging from 10-200 nM.” left out

Recombinant Human IL-1β [10] = target: T2, Recombinant Human IL-1β; assay: cell-based or functional assay
Recombinant Human IL-1β [11] = target: T2, Recombinant Human IL-1β; assay: direct bind ELISA, antigen coated on plate (N-terminal VD)
Method: as §1, §2, §3

Recombinant Human IL-1β [12] = target: T2, Recombinant Human IL-1β; assay: BIACORE SPR, DVD-Ig captured, antigen in flow (N-terminal VD)
Method: as §4

Recombinant Human β-NGF [13] = target: T3, Recombinant Human β-NGF; assay: direct bind ELISA, antigen coated on plate (N-terminal VD)
Method: as §1, §2, §3

Recombinant Human β-NGF [14] = target: T3, Recombinant Human β-NGF; assay: BIACORE SPR, DVD-Ig captured, antigen in flow (N-terminal VD)
Method: as §4

T1 sequence (P15692 other isoform, or with tags, fused parts or gaps limits assumed): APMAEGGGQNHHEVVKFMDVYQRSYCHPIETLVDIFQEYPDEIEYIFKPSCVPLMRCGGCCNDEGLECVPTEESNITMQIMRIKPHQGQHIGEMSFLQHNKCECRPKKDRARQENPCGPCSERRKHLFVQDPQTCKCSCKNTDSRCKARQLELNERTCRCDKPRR

B1: DVD162 (VEGF / PGE2 DVD-Ig) (bispecific antibody)
VH: EVQLVESGGGLVQPGGSLRLSCAASGYTFTNYGMNWVRQAPGKGLEWVGWINTYTGEPTYAADFKRRFTFSLDTSKSTAYLQMNSLRAEDTAVYYCAKYPHYYGSSHWYFDVWGQGTLVTVSSASTKGPEVQLVQSGAEVKKPGASVKVSCKASGYTFTKYWLGWVRQAPGQGLEWMGDIYPGYDYTHYNEKFKDRVTLTTDTSTSTAYMELRSLRSDDTAVYYCARSDGSSTYWGQGTLVTVSS
VL: DIQMTQSPSSLSASVGDRVTITCSASQDISNYLNWYQQKPGKAPKVLIYFTSSLHSGVPSRFSGSGSGTDFTLTISSLQPEDFATYYCQQYSTVPWTFGQGTKVEIKRTVAAPDVLMTQTPLSLPVTPGEPASISCTSSQNIVHSNGNTYLEWYLQKPGQSPQLLIYKVSNRFSGVPDRFSGSGSGTDFTLKISRVEAEDVGVYYCFQVSHVPYTFGGGTKVEIKR
notes: Outer domain is AB014 (VEGF), inner domain is AB048 (PGE2); also called VD162H; VD162L
EC50 (Recombinant Human VEGF [1]): 1.79 nM
Kd (Recombinant Human VEGF [2]): 0.266 nM
koff (Recombinant Human VEGF [2]): 0.000131 s⁻¹
kon (Recombinant Human VEGF [2]): 490000 M⁻¹ s⁻¹

B2: AB032 anti-IL-1b parent antibody (antibody, human IgG1, V domains shown)
VH: QVQLVESGGGVVQPGRSLRLSCAASGFTFSVYGMNWVRQAPGKGLEWVAIIWYDGDNQYYADSVKGRFTISRDNSKNTLYLQMNGLRAEDTAVYYCARDLRTGPFDYWGQGTLVTVSS
VL: EIVLTQSPDFQSVTPKEKVTITCRASQSIGSSLHWYQQKPDQSPKLLIKYASQSFSGVPSRFSGSGSGTDFTLTINSLEAEDAAAYYCHQSSSLPFTFGPGTKVDIKR
EC50 (Recombinant Human IL-1β [3]): 5.27 nM
Kd (Recombinant Human IL-1β [4]): 0.0131 nM

B3: DVD161 (PGE2 / VEGF DVD-Ig) (bispecific antibody)
VH: EVQLVQSGAEVKKPGASVKVSCKASGYTFTKYWLGWVRQAPGQGLEWMGDIYPGYDYTHYNEKFKDRVTLTTDTSTSTAYMELRSLRSDDTAVYYCARSDGSSTYWGQGTLVTVSSASTKGPEVQLVESGGGLVQPGGSLRLSCAASGYTFTNYGMNWVRQAPGKGLEWVGWINTYTGEPTYAADFKRRFTFSLDTSKSTAYLQMNSLRAEDTAVYYCAKYPHYYGSSHWYFDVWGQGTLVTVSS
VL: DVLMTQTPLSLPVTPGEPASISCTSSQNIVHSNGNTYLEWYLQKPGQSPQLLIYKVSNRFSGVPDRFSGSGSGTDFTLKISRVEAEDVGVYYCFQVSHVPYTFGGGTKVEIKRTVAAPDIQMTQSPSSLSASVGDRVTITCSASQDISNYLNWYQQKPGKAPKVLIYFTSSLHSGVPSRFSGSGSGTDFTLTISSLQPEDFATYYCQQYSTVPWTFGQGTKVEIKR
notes: Outer domain is AB048 (PGE2), inner domain is AB014 (VEGF); also called VD161H; VD161L
EC50 (Recombinant Human VEGF [5]): 391 nM
Kd (Recombinant Human VEGF [6]): 0.755 nM
koff (Recombinant Human VEGF [6]): 0.000209 s⁻¹
kon (Recombinant Human VEGF [6]): 277000 M⁻¹ s⁻¹

B4: AB020 anti-NGF parent antibody (antibody, human IgG1, V domains shown)
VH: QVQLQESGPGLVKPSETLSLTCTVSGFSLIGYDLNWIRQPPGKGLEWIGIIWGDGTTDYNSAVKSRVTISKDTSKNQFSLKLSSVTAADTAVYYCARGGYWYATSYYFDYWGQGTLVTVSS
VL: DIQMTQSPSSLSASVGDRVTITCRASQSISNNLNWYQQKPGKAPKLLIYYTSRFHSGVPSRFSGSGSGTDFTFTISSLQPEDIATYYCQQEHTLPYTFGQGTKLEIKR
EC50 (Recombinant Human β-NGF [7]): 2.59 nM
koff (Recombinant Human β-NGF [8]): 0.000112 s⁻¹
kon (Recombinant Human β-NGF [8]): 261000 M⁻¹ s⁻¹
Kd (Recombinant Human β-NGF [9]): 0.428 nM

B5: DVD158 (IL-1b / PGE2 DVD-Ig) (bispecific antibody)
VH: QVQLVESGGGVVQPGRSLRLSCAASGFTFSVYGMNWVRQAPGKGLEWVAIIWYDGDNQYYADSVKGRFTISRDNSKNTLYLQMNGLRAEDTAVYYCARDLRTGPFDYWGQGTLVTVSSASTKGPEVQLVQSGAEVKKPGASVKVSCKASGYTFTKYWLGWVRQAPGQGLEWMGDIYPGYDYTHYNEKFKDRVTLTTDTSTSTAYMELRSLRSDDTAVYYCARSDGSSTYWGQGTLVTVSS
VL: EIVLTQSPDFQSVTPKEKVTITCRASQSIGSSLHWYQQKPDQSPKLLIKYASQSFSGVPSRFSGSGSGTDFTLTINSLEAEDAAAYYCHQSSSLPFTFGPGTKVDIKRTVAAPDVLMTQTPLSLPVTPGEPASISCTSSQNIVHSNGNTYLEWYLQKPGQSPQLLIYKVSNRFSGVPDRFSGSGSGTDFTLKISRVEAEDVGVYYCFQVSHVPYTFGGGTKVEIKR
notes: Outer domain is AB032 (IL-1b), inner domain is AB048 (PGE2); also called VD158H; VD158L
N-terminal VD IL-1β Neutralization Assay EC50 nM (IL-8 release by MRC5 cells) (Recombinant Human IL-1β [10]): 0.11 nM
EC50 (Recombinant Human IL-1β [11]): 17.6 nM
Kd (Recombinant Human IL-1β [12]): 0.0387 nM
koff (Recombinant Human IL-1β [12]): 3.84e-05 s⁻¹
kon (Recombinant Human IL-1β [12]): 992000 M⁻¹ s⁻¹

B6: DVD164 (NGF / PGE2 DVD-Ig) (bispecific antibody)
VH: QVQLQESGPGLVKPSETLSLTCTVSGFSLIGYDLNWIRQPPGKGLEWIGIIWGDGTTDYNSAVKSRVTISKDTSKNQFSLKLSSVTAADTAVYYCARGGYWYATSYYFDYWGQGTLVTVSSASTKGPEVQLVQSGAEVKKPGASVKVSCKASGYTFTKYWLGWVRQAPGQGLEWMGDIYPGYDYTHYNEKFKDRVTLTTDTSTSTAYMELRSLRSDDTAVYYCARSDGSSTYWGQGTLVTVSS
VL: DIQMTQSPSSLSASVGDRVTITCRASQSISNNLNWYQQKPGKAPKLLIYYTSRFHSGVPSRFSGSGSGTDFTFTISSLQPEDIATYYCQQEHTLPYTFGQGTKLEIKRTVAAPDVLMTQTPLSLPVTPGEPASISCTSSQNIVHSNGNTYLEWYLQKPGQSPQLLIYKVSNRFSGVPDRFSGSGSGTDFTLKISRVEAEDVGVYYCFQVSHVPYTFGGGTKVEIKR
notes: Outer domain is AB020 (NGF), inner domain is AB048 (PGE2); also called VD164H; VD164L
EC50 (Recombinant Human β-NGF [13]): 1.21 nM
Kd (Recombinant Human β-NGF [14]): 0.248 nM
koff (Recombinant Human β-NGF [14]): 0.000103 s⁻¹
kon (Recombinant Human β-NGF [14]): 414000 M⁻¹ s⁻¹
